In the supplement of paper PMC9732359:
± gives the uncertainty stated by the source.

Test: protein stability index of a GFP-peptide fusion (yeast GPS) (PSI 1-4); higher = more stable; sorted into four equal gates, so the index is relative within each strain
How it was run: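 Tiled 17-residue yeast protein peptides were fused downstream of GFP in a plasmid that also expresses Cherry, and the pooled library was carried in yeast. Mid-log cultures in leucine-free medium were sorted into four equal gates by GFP/Cherry fluorescence ratio, and plasmids from each gate were PCR-amplified and Illumina-sequenced, with reads assigned to strains by barcodes. The protein stability index for each peptide was each gate's read frequency times its gate number, summed.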

| Sequence | protein stability index (doa10∆) | protein stability index (pdr5∆) | protein stability index (san1∆) | protein stability index (ubr1∆) |
| --- | --- | --- | --- | --- |
| REDEFGSIPSLTTQFVT [YDL088C/ASM4] | 3 ± 0.066 | 2.92 ± 0.058 | 3.06 ± 0.053 | 3.2 ± 0.067 |
| LLDKYGKTGLSNMILGS [YML103C/NUP188] | 2.34 ± 0.078 | 2.75 ± 0.11 | 2.26 ± 0.095 | 2.12 ± 0.058 |
| GKEFEARNLIEDEDDGE [RPC53] | 3.46 ± 0.16 | 3.58 ± 0.14 | 3.41 ± 0.1 | 2.94 ± 0.14 |
| KAELPQWYTLQSQLNVT [MED8] | 2.77 ± 0.055 | 2.9 ± 0.047 | 2.8 ± 0.05 | 2.69 ± 0.056 |
| GLVDENKVEAFKSLYTF [YAR002W/NUP60] | 3.01 ± 0.089 | 2.65 ± 0.08 | 3.39 ± 0.054 | 2.83 ± 0.043 |
| VKYASPNLNMKYRKRQL [FAS2] | 3.6 ± 0.14 | 3.19 ± 0.09 | 3.02 ± 0.093 | 2.88 ± 0.068 |
| RVPIRSEYKVAFPHLYN [PRP8] | 2.54 ± 0.069 | 2.27 ± 0.062 | 2.34 ± 0.083 | 2.08 ± 0.041 |
| GRETILSNFNADINLEE [SIR3] | 3.14 ± 0.094 | 3.17 ± 0.11 | 2.85 ± 0.067 | 2.99 ± 0.07 |
| SNDTTAFNDSCVNLSLF [SRB8] | 3.07 ± 0.065 | 2.92 ± 0.069 | 3.13 ± 0.06 | 2.34 ± 0.035 |
| CVVLGCERRSTLKLQDT [PRE6] | 1.78 ± 0.074 | 1.66 ± 0.073 | 1.91 ± 0.13 | 1.28 ± 0.062 |
| KLGIESKQPNSAIRKCV [RPS23A] | 3.21 ± 0.11 | 3.25 ± 0.12 | 3.02 ± 0.12 | 3.41 ± 0.054 |
| ESAFENLMGNRNNHNSN [SNF12] | – | – | – | 3.44 ± 0.21 |
| DIFGANAASGSNSNVTN [YOR098C/NUP1] | 2.11 ± 0.064 | 1.65 ± 0.054 | 1.64 ± 0.11 | 2.63 ± 0.079 |
| FNNQGKLDLFKYFTELS [MED1] | 3.07 ± 0.092 | 2.83 ± 0.072 | 2.92 ± 0.056 | 2.88 ± 0.092 |
| LPGKVNTKEEFAAAPND [SNF5] | 2.66 ± 0.084 | 2.91 ± 0.061 | 2.84 ± 0.058 | 2.85 ± 0.067 |
| LAVFLFDIYNRDRKLIT [YJL039C/NUP192] | 1.98 ± 0.2 | 1.46 ± 0.13 | – | – |
| LGIEAARYSIIREINYT [RPO31] | 1.76 ± 0.13 | 1.66 ± 0.12 | 1.31 ± 0.24 | 1.53 ± 0.12 |
| YPFLLSFLGEAKSMAFL [YML103C/NUP188] | 2.18 ± 0.084 | 2.35 ± 0.067 | 2.29 ± 0.11 | 2.38 ± 0.048 |
| RKFHELNDHIDDFEVNV [GRR1] | 3.07 ± 0.097 | 3.18 ± 0.1 | 2.42 ± 0.16 | 3.08 ± 0.073 |
| FGNKPAGSTGFSFGQNN [YGR119C/NUP57] | 1.75 ± 0.089 | 1.77 ± 0.085 | 1.46 ± 0.15 | 1.29 ± 0.28 |
| YPFVTNDDIEWMLSICV [YJR042W/NUP85] | 2.29 ± 0.083 | 2.56 ± 0.061 | 2.67 ± 0.059 | 2.68 ± 0.058 |
| KEEVCQGMEGTVDLALF [YMR129W/POM152] | 3.45 ± 0.21 | 3.44 ± 0.27 | 3.26 ± 0.2 | – |
| KKSLEEDDEFEDFPIDT [SEM1] | 3 ± 0.13 | 3.02 ± 0.13 | 2.66 ± 0.14 | 3.02 ± 0.088 |
| QFEKSRKVSGPRALQPS [RET1] | 2.98 ± 0.085 | 3.19 ± 0.11 | 2.94 ± 0.061 | 3.06 ± 0.066 |
| ICNPVHKHREARGLTAT [RPL15B] | 2.81 ± 0.078 | 2.52 ± 0.082 | 2.59 ± 0.092 | 2.42 ± 0.062 |
| GYDIFLNVVLDDAMEIN [SMX2] | 3.13 ± 0.064 | 3.07 ± 0.075 | 3.17 ± 0.054 | 2.99 ± 0.06 |

| Sequence | protein stability index (doa10∆) | protein stability index (pdr5∆) | protein stability index (san1∆) | protein stability index (ubr1∆) |
| --- | --- | --- | --- | --- |
| VLDSMTKEELESDGRMF [SRP54] | 3.02 ± 0.088 | 3.2 ± 0.089 | 3.37 ± 0.051 | 2.27 ± 0.059 |
| GLGETSGDNHTQQSHEQ [RPT4] | 3.32 ± 0.14 | 3.19 ± 0.21 | – | 3.23 ± 0.22 |
| FTVNVLYPDSSSFKKNL [RPN3] | 2.08 ± 0.057 | 2.59 ± 0.067 | 2.55 ± 0.063 | 2.44 ± 0.057 |
| SDDIISQVDPITLFVLV [FAS2] | 1.19 ± 0.045 | 1.38 ± 0.068 | 1.33 ± 0.17 | 1.23 ± 0.064 |
| AIPLLKVLRKFRVQSQS [NUT1] | 1.69 ± 0.085 | 1.93 ± 0.079 | 1.69 ± 0.11 | 2.5 ± 0.053 |
| SLLDAEEERRKKRESGV [SNF2] | 3.47 ± 0.08 | 3.32 ± 0.1 | – | 3.47 ± 0.047 |
| DEKGNEIKVGKQRFQGC [ARP9] | 2.88 ± 0.18 | 3.1 ± 0.17 | 3.06 ± 0.1 | 3.41 ± 0.1 |
| ADVTHFVKPGTALDAEG [DIS3] | 2.9 ± 0.094 | 3.33 ± 0.2 | 3.04 ± 0.076 | 3.08 ± 0.081 |
| QNVNVPSAFNFTGNNST [YOR098C/NUP1] | 2.56 ± 0.049 | 2.89 ± 0.06 | 2.77 ± 0.037 | 2.84 ± 0.053 |
| TRLPAFERPAVKEEKED [RPC53] | 2.87 ± 0.25 | 2.71 ± 0.23 | 3.21 ± 0.085 | 3.46 ± 0.16 |
| AAAYSHELPRYGITHGL [RPL5] | 2.64 ± 0.081 | 2.93 ± 0.064 | 2.98 ± 0.052 | 2.96 ± 0.074 |
| VKWYHFDHNDKKLSINS [PRE7] | 2.51 ± 0.086 | 2.38 ± 0.063 | 2.15 ± 0.082 | 2.48 ± 0.1 |
| MSQGQSKKLDVTVEQLR [NSL1] | 2.64 ± 0.075 | 2.74 ± 0.075 | 2.7 ± 0.056 | 2.78 ± 0.075 |
| NKLGNDPSLNLKLLAKS [BRR2] | 2.64 ± 0.062 | 2.56 ± 0.079 | 2.86 ± 0.07 | 2.55 ± 0.096 |
| DSGIGSNGSGIVAAGGG [CSL4] | 3.45 ± 0.066 | 3.34 ± 0.07 | 3.35 ± 0.052 | 3.42 ± 0.058 |
| RPQKLRASLVPGTVLIL [RPL6A] | 2.1 ± 0.066 | 2.32 ± 0.064 | 2.11 ± 0.077 | 2.45 ± 0.081 |
| KEAFEEEIKQSARNYDK [SMC1] | 3.21 ± 0.078 | 3.09 ± 0.082 | 3.06 ± 0.051 | 3.31 ± 0.056 |
| CVKNHGQSSSIQSSLMT [YCS4] | 2.48 ± 0.17 | 2.67 ± 0.14 | 2.83 ± 0.052 | 3.05 ± 0.1 |
| ENSFYKKEASKTKWDRK [POP1] | 2.25 ± 0.063 | 2.37 ± 0.063 | 2.3 ± 0.068 | 2.22 ± 0.048 |
| SNIPNLLRNLESKMRQQ [YDL088C/ASM4] | 3.15 ± 0.11 | 2.84 ± 0.086 | 2.97 ± 0.12 | 3.07 ± 0.062 |
| ATLPYIKQDIPIVIIFR [RPB2] | 1.5 ± 0.063 | 1.2 ± 0.049 | 1.19 ± 0.12 | 1.14 ± 0.041 |
| SVISGNLSLYEATAASH [CSN12] | 2.28 ± 0.063 | 2.87 ± 0.068 | 2.8 ± 0.069 | 2.7 ± 0.057 |
| LNSLKDERSQGEKNFTS [SMC4] | 3.41 ± 0.12 | 3.3 ± 0.25 | 3.05 ± 0.087 | 3.5 ± 0.11 |
| IRAIRKVISEILTKEVQ [RPS1A] | 1.714 ± 0.013 | 1.89 ± 0.012 | 1.83 ± 0.021 | 1.966 ± 0.011 |
| SDVLRFLQRVRVWEYRQ [RPL15A] | 1.34 ± 0.083 | 1.88 ± 0.066 | 1.71 ± 0.083 | 2.01 ± 0.054 |
| GQVSMSQFNGSGNGSNP [PGD1] | 3.3 ± 0.11 | 3.3 ± 0.12 | 2.93 ± 0.077 | 3.2 ± 0.068 |
